Test [1] deals with T1, coil C-mCherry-6xHis fusion protein (human).
T1 construct: also called mCherry-C; wild-type mCherry-C; not shown: mCherry red fluorescent protein fused to the C-terminal of coil C
T1 chain: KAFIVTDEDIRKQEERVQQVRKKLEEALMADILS
The experiment in a line: ITC, C′-GFP injected into C-mCherry, PBS pH 7.5, 25 °C. As for the experimental part:
ITC analysis was conducted using MicroCal Auto-iTC200 (Malvern Panalytical) at the Korea Basic Science Institute (Ochang, Korea). […] For titration, 2 μL of C′-GFP was injected to C-mCherry 19 times at 25° C. for 4 seconds, with 150-seconds intervals, and data were analyzed using the MicroCal Origin 7.0 software. N is the stoichiometric number, KD is the binding affinity, and AH and AS are changes in enthalpy and binding entropy, respectively.

The target in test [2] is T2, C_Ala27 (A27C) coil C mutant fused to mCherry (human).
T2 construct: also called C half of Ala27-Ile8
T2 chain: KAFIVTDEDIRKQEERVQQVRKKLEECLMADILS
Kind of test: FRET between GFP and mCherry, equimolar mixture, 4 µM, plate reader. How it is done: (§1) A sample of wild-type GFP alone or a mixture of C′-GFP/C-mCherry, Ala27-lle8 and Thr6-Arg29 in equimolar quantities was diluted appropriately with phosphate-buffered saline (PBS) to make a total volume of 200 μL and a concentration of 4 μM. The sample was transferred to a 96-well plate and the absorbance at 510 nm 488 nm and luminescence (fluorescence) of each well were measured with the Synergy H1 hybrid multi-mode microplate reader (BioTek). After calculating the luminescence (A) per unit absorbance of the wild-type GFP alone sample and the luminescence (B) per unit absorbance of each sample, fluorescence resonance energy transfer efficiency was calculated by the following equation.

In test [3] the target is T3, C_Thr6 (T6C) coil C mutant fused to mCherry (human).
T3 construct: also called C half of Thr6-Arg29
T3 chain: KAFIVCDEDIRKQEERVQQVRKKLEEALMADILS
Described as above. How it is done: as §1

A value given as a limit tells only on which side of the number the result lay.

B1: coil C′-GFP-6xHis fusion protein (other)
chain: PEERERMIKQLKEELRLEEAKLVLLKKLRQSQIQKEATAQK
notes: also called GFP-C′; wild-type GFP-C′; not shown: green fluorescent protein (GFP) fused to the C-terminal of coil C′
As for B1, in test [1], the affinity, expressed as Kd, was 10.7 nM; the ΔH was -2.6 kcal/mol; the ΔS is -52.4 cal/mol/deg.

Take PEERERMCKQLKEELRLEEAKLVLLKKLRQSQIQKEATAQK (other, not shown: large carriers, not fully specified, also called 18C; C′ half of Ala27-Ile8) [C′_Ile8 (I8C) coil C′ mutant fused to GFP]: the “FRET efficiency, fold against wild-type (GFP-C′+mCherry-C)” value in test [2] was at least 2 fold.

Turning to PEERERMIKQLKEELRLEEAKLVLLKKLCQSQIQKEATAQK (other, not shown: large carriers, also called C′ half of Thr6-Arg29) [C′_Arg29 (R29C) coil C′ mutant fused to GFP], the “FRET efficiency, fold against wild-type (GFP-C′+mCherry-C)” value in test [3] was at least 2 fold.
